Results from the supplement of paper PMC11502859.

test system: HEK293T; experiment: median enrichment of reporter reads in eGFP-reduced (low/intermediate) vs eGFP-high sorted cells (eGFP-extension fusion abundance) (ratio); higher = stronger loss of eGFP-fusion protein abundance (more destabilising extension)
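Further: lentiviral eGFP-IRES-mCherry reporter pool sorted by FACS 96 h post-transduction, gated on mCherry-high cells, Illumina read counts normalized per million, median across four biological replicates.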

Q: “SWTGLFLTSDLSQCLFCPGSDFPVVLPPFRIKGLIVYPEFTSFGVYI [COBL]” was tested. Which median enrichment did it give?
A: 13

Q: SWTVPICREA [RWDD1] was tested. Which median enrichment did it give?
A: 6.01

Q: How did the median enrichment turn out when SWVCAQPFKAAGSTT [TRIM45] was run?
A: 4.99

Q: SYCSMDIK [KDM6A] was tested. Which median enrichment did it give?
A: 1.22

Q: For “SYEQNKTLRKINRQGSDLFLKNLRSVDSQED [PRKACB]”, which median enrichment is on record?
A: 2.01

Q: How did the median enrichment turn out when SYFRLESKTS [PIK3CG] was run?
A: 1.99

Q: For SYGTLAPRHEARWPVFLNLKCKILLFPGPRRV [ICOS], which median enrichment is on record?
A: 11

Q: SYKPA [WDR97] was tested. Which median enrichment did it give?
A: 0.947

Q: For SYKQRTSSILRKEML [MEOX2], which median enrichment is on record?
A: 5.43

Q: For SYKSIVSDWTITSFNNVSNNVLY [FAM135A], which median enrichment is on record?
A: 30.6

Q: How did the median enrichment turn out when SYLQCPCCVALQMRPLQTRPA [WDCP] was run?
A: 8.46

Q: How did the median enrichment turn out when “TAPALELGARAAELVFGPQRRIQNQKLKSDVRWAPAPSAESRQGEAGWSQAPSHAAPKSWTHLWGAPHLHLRPHISPLPFLYV [MYO9B]” was run?
A: 5.92

Q: Which median enrichment does the source give for “TIRLWDTYQSEPDGFSHFHLYVCAAFLVRWRKEILEEKDFQELLLFLQNLPTAHWDDEDISLLLAEAYRLKFAFADAPNHYKK [TBC1D22A]” here?
A: 4.42

Q: With “TLTMPRPHPVQHSQSSHLHPRTVGAGRHFPLEHVLRSITLGPTARLSLPPGSCMRSPDQLDHHFAQPLNTMHQASISQFPLAF [SCARA5]” as the substance, how does the median enrichment read?
A: 3.72

Q: TMEPPGGRQKKR [Degron FEM1C] was tested. Which median enrichment did it give?
A: 0.496

Q: TMNNEEDLLRSL [Degron FEM1C] was tested. Which median enrichment did it give?
A: 0.347

Q: How did the median enrichment turn out when “TPAPGLGRELTRTGCSQKAGPSLSPKPLLDLWRSCRLDREAVPLSSPSPSRASPWSFRSSFWGLFQVRRMEEGGQATQHPPTP [FOXN4]” was run?
A: 5.36

Q: Which median enrichment does the source give for “TQWAPCTPVSGAVRLGYIVNSASTERLALRASSESSSSGTPPKPTPPGTPLSGIPAKRRTLSRSRPPHPQSVAPPTEQPRFGP [PRRT1]” here?
A: 0.999

Q: How did the median enrichment turn out when TSLYKKVGMGRK [Degron APPBP2] was run?
A: 14.1

Q: How did the median enrichment turn out when “TTMERWAVAMVDGLPGWAFELALGTTRLSLSSHGTQKCAAMLPRVLSPHLSQPSWRPGLSLQPLGPALIAGGQALDLEGLAHP [ADGRG1]” was run?
A: 5.12

Q: Which median enrichment does the source give for TTT [Thr03] here?
A: 0.568

Q: With TTTT [Thr04] as the substance, how does the median enrichment read?
A: 0.324

Q: With TTTTT [Thr05] as the substance, how does the median enrichment read?
A: 0.336

Q: How did the median enrichment turn out when TTTTTT [Thr06] was run?
A: 0.322

Q: With TTTTTTT [Thr07] as the substance, how does the median enrichment read?
A: 0.319

Q: With TTTTTTTT [Thr08] as the substance, how does the median enrichment read?
A: 0.414

Q: With TTTTTTTTT [Thr09] as the substance, how does the median enrichment read?
A: 0.552

Q: For TTTTTTTTTT [Thr10], which median enrichment is on record?
A: 0.379

Q: How did the median enrichment turn out when “VAANTPASGLLVAAPGDTPAKPTRWRGPPWSLATLPASAQGPLPSPGHLLCRRHSSQKPLSQKRLVFKKSRFFAPEVSFRGRM [AP1M1]” was run?
A: 4.38

Q: For “VGIRAAPSGAGTAGTAAILLLLVFFLLSKINCGNILVSCDVRCSFVVKFAIDIEIMTSVFPEIKHVSTQDFLDHSRKCQTFSQ [KISS1R]”, which median enrichment is on record?
A: 7.04

Q: VGTMAAGRAPGK [Degron APPBP2] was tested. Which median enrichment did it give?
A: 6

Q: For VSGIMRRPWGMN [Degron APPBP2], which median enrichment is on record?
A: 10.2

Q: With “VSHAYAHAQPPSGSLESRADTHSHTHCLAKNTPCLPCHSPHSHSLSPDPCLSLDCRGTTHLFGIQGPQPTVPSPINCSRAPHK [FOXP3]” as the substance, how does the median enrichment read?
A: 2.58

Q: How did the median enrichment turn out when “VSSFLLVFFILFSFHQPSCILALQRDRDRSSAQGFSLPLFIMGGGYHPPSQSCEESGTSFFPTSLFPHSFLSPSGLSFPYTLT [NOTCH3]” was run?
A: 5.94

Q: How did the median enrichment turn out when “VVRASPYLLLSPCEEDPDLASFPRRGWGVPRVPVLEGPPSPSLITVLFSAPPSAARLQHQGEADAEPHRWESCLWKGAFCYNL [ZNF646]” was run?
A: 3.51

Q: With VVV [Val03] as the substance, how does the median enrichment read?
A: 0.518

Q: How did the median enrichment turn out when VVVV [Val04] was run?
A: 1.54

Q: With VVVVV [Val05] as the substance, how does the median enrichment read?
A: 10.3

Q: With VVVVVV [Val06] as the substance, how does the median enrichment read?
A: 5.06

Q: How did the median enrichment turn out when VVVVVVV [Val07] was run?
A: 7.67

Q: With VVVVVVVV [Val08] as the substance, how does the median enrichment read?
A: 10.5

Q: VVVVVVVVV [Val09] was tested. Which median enrichment did it give?
A: 8.21

Q: With “WAAAARPSGTPASPGGALGQVPSGRTTPGPQGPRPAATLVVAASRSAFGRPLGVAGAARRVQVEVPVPGPQRA [B3GALT6]” as the substance, how does the median enrichment read?
A: 8.24

Q: How did the median enrichment turn out when “WAAPPGRWGAPLNDSVILKRWLGSWEKPSGCPLGNLHIISVLLVMSRWRGHRCAVSCSRNY [C19orf12]” was run?
A: 22

Q: For WACYFHGVCQ [OR5D18], which median enrichment is on record?
A: 4.25

Q: Which median enrichment does the source give for “WADPGYVPYPRGLSIDRDYIITWLEVKGSIQVLHLVLPCLLSDHSDGLMWLLMWNCRRVQRRVCNKAIGKHTGAFPSPSGPRP [HS3ST3B1]” here?
A: 4.31

Q: Which median enrichment does the source give for “WADPVGIRAAPSGAGTAGTAAILLLLVFFLLSKINCGNILVSCDVRCSFVVKFAIDIEIMTSVFPEIKHVSTQDFLDHSRKCQ [KISS1R]” here?
A: 10.9

Q: Which median enrichment does the source give for WAGLRGMVRTSPP [NANS] here?
A: 6.83

Q: How did the median enrichment turn out when WALGLKSQLFLSCSV [DIRAS3] was run?
A: 35.7

Q: How did the median enrichment turn out when WALHPARS [IQCD] was run?
A: 0.961

Q: How did the median enrichment turn out when “WAPGTAPHCQLPLLGGPGRRVPPSPCQGPGDPLPGCLRLLLRRGNAKKEKEKPRARPLPPAVHCAASSVPGLTVPLSSAPARQ [NRXN2]” was run?
A: 6.68

Q: With “WAPLPPTPYQLQSGGFHAQMALGVTSSFACGP [TPGS2]” as the substance, how does the median enrichment read?
A: 10.1

Q: Which median enrichment does the source give for “WAPSCLSRDPGTPPARTLGLSLPRAPPASVDWRVVLPLPRNQPQPR [SLC9A3R2]” here?
A: 18.7

Q: “WARGHARAVQSWPGPPVGLLCSLPSLPPDAGPCCSLRTIRSSCSCHPHLETCLCAHLKMGSVPVLKCPVAAPVVEDQGLRFGT [FRMD8]” was tested. Which median enrichment did it give?
A: 5.56

Q: Which median enrichment does the source give for WARRASQRSGQAVRPWPSVC [INMT] here?
A: 9.99

Q: How did the median enrichment turn out when “WARSAVSSQWILVNWWRLADTLEKPKPESLLFSLFSCLCSVSLNTTFSAMVCG [MRFAP1]” was run?
A: 5.48

Q: For WARSTGPDEWIFTTFTRL [CD8B], which median enrichment is on record?
A: 7.72

Q: How did the median enrichment turn out when “WARTLNRTPVGPARTACSAGDGSDPWSSIAPHDIESRPVFALWEENGRESGQLSQSIRAGRT [ABCC6]” was run?
A: 7.78

Q: With “WARTSPGTAGGPPPPPSHSVTPGPSGAGWRPRSPLLRSPRS [NPB]” as the substance, how does the median enrichment read?
A: 3.31

Q: WARVVARPCTTAIANQSPKAKFTCCSHPQ [MAGEB2] was tested. Which median enrichment did it give?
A: 8.12

Q: How did the median enrichment turn out when “WASSPPAHVMKQRFGLVAHCLWPPSPAQPQASQPQTLESPTTMERWAVAMVDGLPGWAFELALGTTRLSLSSHGTQKCAAMLP [ADGRG1]” was run?
A: 5.77

Q: For WATLRSVFPLPPSPHVRRPPPRCSRGS [C19orf57], which median enrichment is on record?
A: 15.9

Q: How did the median enrichment turn out when WATLSVGFFLEDSTLLPHVLSQLQS [CSTF1] was run?
A: 4.6

Q: With WAV [GBA2] as the substance, how does the median enrichment read?
A: 0.997

Q: For “WAVSLTCPGTPAPGLGRELTRTGCSQKAGPSLSPKPLLDLWRSCRLDREAVPLSSPSPSRASPWSFRSSFWGLFQVRRMEEGG [FOXN4]”, which median enrichment is on record?
A: 4.84

Q: Which median enrichment does the source give for “WAWTLEKEARSQPLAGQGRRPQEPSPPLLCVGTGGPWPVPGHSGQGPRDISTRSWRAVRIHSACPALAGQRQGRTFGKTKTVG [TCF15]” here?
A: 5.34

Q: How did the median enrichment turn out when “WCLGSTCLLSPQGLSLASLQWGCCVSVHLRLLCLCLLHHAGVWEEWTDRG [TCL1A]” was run?
A: 4.56

Q: With WCLHHLCSCSLKGSPYSKPPKLGDPSSP [MPIG6B] as the substance, how does the median enrichment read?
A: 6.53

Q: For WCPGVCCLAHMSLL [CLSTN2], which median enrichment is on record?
A: 5.25

Q: Which median enrichment does the source give for WCPPKP [FAM8A1] here?
A: 0.371

Q: Which median enrichment does the source give for WCSYLFFSSLS [LAMTOR5] here?
A: 13.3

Q: How did the median enrichment turn out when “WCWKRSKHWPLVSTLQPPQVPLWGDTGGPLAVTPCAWSDPRPLPPARFLLSPAWEDVSLSTSQRARGARGWTGQ [PPP2R1A]” was run?
A: 3.49

Q: Which median enrichment does the source give for WDFGSF [TSPAN31] here?
A: 0.573

Q: For WDGR [ZNF772], which median enrichment is on record?
A: 0.288

Q: How did the median enrichment turn out when “WDRAGDEARPWTLHPAIETGLRRKEDPGQDPGRLATPPTPRTYSR [NUPR1]” was run?
A: 5.32

Q: How did the median enrichment turn out when WDREDPA [BTNL3] was run?
A: 0.401

Q: With “WDSSPSPSDQGPSSSKPEAELPAHPCRPPKPTPPHPV [ARL8A]” as the substance, how does the median enrichment read?
A: 1.02
